For this experiment, the target named is interleukin 1 receptor 1 (Il1r1), murine (mouse) (UniProt P13504). Kind of experiment: cell-based or functional assay.
Chain of UniProt P13504 (P13504 20-576): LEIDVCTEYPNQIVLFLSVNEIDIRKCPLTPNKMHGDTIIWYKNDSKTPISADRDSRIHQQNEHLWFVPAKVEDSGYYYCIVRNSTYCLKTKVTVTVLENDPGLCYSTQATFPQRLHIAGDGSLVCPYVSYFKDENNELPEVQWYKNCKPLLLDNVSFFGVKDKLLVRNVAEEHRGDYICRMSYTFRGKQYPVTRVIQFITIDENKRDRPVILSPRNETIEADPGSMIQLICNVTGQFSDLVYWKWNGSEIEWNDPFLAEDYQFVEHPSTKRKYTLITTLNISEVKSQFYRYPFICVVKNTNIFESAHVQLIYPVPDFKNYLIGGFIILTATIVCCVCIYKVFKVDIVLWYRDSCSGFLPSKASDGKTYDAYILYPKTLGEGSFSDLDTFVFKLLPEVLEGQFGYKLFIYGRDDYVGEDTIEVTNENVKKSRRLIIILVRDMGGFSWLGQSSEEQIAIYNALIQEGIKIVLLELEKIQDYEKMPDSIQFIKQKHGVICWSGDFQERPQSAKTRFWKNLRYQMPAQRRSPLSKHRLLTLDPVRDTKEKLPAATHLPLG

As for IL-1α (ligand), the NF-κB transcriptional activity (luciferase reporter), fold induction after IL-1α stimulation of Il1r1+/- cells came to 4.8 fold and the NF-κB transcriptional activity (luciferase reporter), fold induction after IL-1α stimulation of wild-type (Il1r1+/+) cells came out at 6.3 fold.
